Experimental data reported in paper doi:10.1101/801027.

Biological target: T1, Hfq (Pseudomonas putida KT2440, UniProt Q88DD3 1-86)
T1 sequence: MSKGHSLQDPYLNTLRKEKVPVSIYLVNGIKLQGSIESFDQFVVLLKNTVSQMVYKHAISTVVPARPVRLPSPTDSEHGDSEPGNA
Experiment: EMSA

B1: MicC scaffold (structured_RNA)
RNA: UUUCUGUUGGGCCAUUGCAUUGCCACUGAUUUUCCAACAUAUAAAAAGACAAGCCCGAACAGUCGUCCGGGCUUUUUUU
B1: binds.
